Nine variants from PMC10973816 can be followed below.

The chains are these.
B1: mouse mGluR6 (metabotropic glutamate receptor 6), wild type, complex N-glycosylated form (upper dimer band, band C) [modified: complex N-glycosylation (Endo H-resistant, PNGase F-sensitive); N-glycosylation sites N290, N445 … (parent)
chain 1: AGSVRLAGGLTLGGLFPVHARGAAGRACGTLKKEQGVHRLEAMLYALDRINADPELLPGVRLGARLLDTCSRDTYALEQALSFVQALIRGRGDGEEASVRCPGGVPPLRAAPPERVVAVVGASASSVSIMVANVLRLFAIPQISYASTAPELSDSTRYDFFSRVVPPDSYQAQAMVDIVRALGWNYVSTLASEGNYGESGVEAFVQISREAGGVCIAQSIKIPREPKPGEFHKVIRRLMETPNARGIIIFANEDDIRRVLEATRQANLTGHFLWVGSDSWGSKISPILNLEEEAVGAITILPKRASIDGFDQYFMTRSLENNRRNIWFAEFWEENFNCKLTSSGGQSDDSTRKCTGEERIGQDSTYEQEGKVQFVIDAVYAIAHALHSMHQALCPGHTGLCPAMEPTDGRTLLHYIRAVRFNGSAGTPVMFNENGDAPGRYDIFQYQATNGSASSGGYQAVGQWAEALRLDMEALQWSGDPHEVPPSQCSLPCGPGERKKMVKGVPCCWHCEACDGYRFQVDEFTCEACPGHMRPTPNHTGCRPTPVVRLTWSSPWAALPLLLAVLGIMATTTIIATFMRHNDTPIVRASGRELSYVLLTGIFLIYAITFLMVAEPCAAVCASRRLLLGLGTTLSYSALLTKTNRIYRIFEQGKRSVTPPPFISPTSQLVITFGLTSLQVVGVIAWLGAQPPHSVIDYEEQRTVDPEQARGVLKCDMSDLSLIGCLGYSLLLMVTCTVYAIKARGVPETFNEAKPIGFTMYTTCIIWLAFVPIFFGTAQSAEKIYIQTTTLTVSLSLSASVSLGMLYVPKTYVILFHPEQNVQKRKRSLKKTSTMAAPPKSENSEDAK
chain 2: DCWLIEGDKGYVWLAICSQNQPPYETIPQHINSTVHDLRLNENKLKAVLYSSLNRFGNLTDLNLTKNEISYIEDGAFLGQTSLQVLQLGYNRLSNLTEGMLRGMSRLQFLFVQHNLIEVVTPTAFSECPSLISIDLSSNRLSRLDGATFASLASLMVCELAGNPFNCECDLFGFLAWLVVFNNVTKNYDRLQCESPREFAGYPLLVPRPYHSLNAITVLQAKCRNGSMPARPVSHPTPYSTDAQREPDENSGFNPDEILSVEPPASSTTDASAGPAIKLHQVTFTSATLVVIIPHPYSKMYVLVQYNNSYFSDVMTLKNKKEIVTLDKLRAHTEYTFCVTSLRNSRRFNHTCLTFTTRDLVPGDLAPSTSTTTHY
B2: mouse mGluR6 (metabotropic glutamate receptor 6), wild type, complex N-glycosylated form (upper dimer band, band C) [modified: complex N-glycosylation (Endo H-resistant, PNGase F-sensitive); N-glycosylation sites N290, N445 … (parent)
chain 1: B1 chain 1
chain 2: QGDCWLIEGDKGFVWLAICSQNQPPYEAIPQQINNTIVDLRLNENRIRSVQYASLSRFGNLTYLNLTKNEIGYIEDGAFSGQFNLQVLQLGYNRLRNLTEGMLRGLSKLEYLYLQANLIEVVMASAFWECPNIVNIDLSMNRIQQLGSGTFAGLTKLSVCEIYSNPFYCSCELLGFLRWLAAFTNATQTHDRVQCESPPVYAGYFLLGQGRHGHQRSILSKLQSVCTEGSYTAEVLGPPRPVPGRSQPGHSPPPPPPEPSDMPCADDECFSGDGTTPLVILTTLVPQTEARPSMKVKQLTQNSATIMVQLPSPFNRMYTLEQYNNSKSFTVSKLTQPQEEIRLTNLYTLTNYTYCVVSTSSGTHHNHTCLTICLPKPPSPPGPVPSPSTATHY

Variants of B1 are the subject of the first test. The test can be described thus: pull-down. To be noted: with ELFN2 extracellular domain fused to human Fc [mouse]; parent: 1; read off a plot.
Consider chain 1 N422Q, for which the ratio to parent worked out at 0.04.

In the case of chain 1 N450Q, the ratio to parent is 0.32.

Take chain 1 N267Q: the ratio to parent came to 0.52.

With chain 1 N538Q, the ratio to parent came to 0.32.

The next test covers variants of B2. The test can be described thus: pull-down. Particulars: with ELFN1 extracellular domain fused to human Fc [mouse]; parent: 1; read off a plot.
As to chain 1 N422Q, the ratio to parent came to 0.05.

On to chain 1 N538Q, for which the ratio to parent is 0.13.

Turning to chain 1 N450Q, the ratio to parent was 0.6.

As to chain 1 N267Q, the ratio to parent came out at 0.59.

The same test, now with this note: with ELFN1 extracellular domain fused to human Fc [mouse]; five times more transfected cells were used for 4Q; parent: 1; read off a plot.
Take chain 1 N267Q N422Q N450Q N538Q: the ratio to parent was 0.04.
